From the DeepSol protein solubility set

Assay: soluble on expression in E. coli; label from the status in PepcDB or PDB records

Soluble on expression in E. coli, not soluble:
MGSDKIHHHHHHMSDIESLGEAAGLFEEPEDFLPPPPKPHFAEYQRSHITKESKSDVKDIKLRLVGTSPLWGHLLWNAGIYTANHLDSHPELIKGKTVLELGAAAALPSVICALNGAQMVVSTDYPDPDLMQNIDYNIKSNVPEDFNNVSTEGYIWGNDYSPLLAHIEKIGNNNGKFDLIILSDLVFNHTEHHKLLQTTKDLLAEKGQALVVFSPHRPKLLEKDLEFFELAKNEFHLVPQLIEMVNWKPMFDEDEETIEVRSRVYAYYLTHEK, MGSDKIHHHHHHMSDLLEWQDLAQLPVSIFKDYVTDAQDAEKPFIWTEVFLREINRSNQEIILHIWPMTKTVILGMLDRELPHLELAKKEIISRGYEPVVRNFGGLAVVADEGILNFSLVIPDVFERKLSISDGYLIMVDFIRSIFSDFYQPIEHFEVETSYCPGKFDLSINGKKFAGLAQRRIKNGIAVSIYLSVCGDQKGRSQMISDFYKIGLGDTGSPIAYPNVDPEIMANLSDLLDCPMTVEDVIDRMLISLKQVGFNDRLLMIRPDLVAEFNRFQAKSMANKGMVSRDE, MGSDKIHHHHHHMSDLQSLQPKLLWQWFDQICAIPHPSYKEEQLAQFIINWAKTKGFFAERDEVGNVLIRKPATVGMENRKPVVLQAHLDMVPQANEGTNHNFDQDPILPYIDGDWVKAKGTTLGADNGIGMASALAVLESNDIAHPELEVLLTMTEERGMEGAIGLRPNWLRSEILINTDTEENGEIYIGCAGGENADLELPIEYQVNNFEHCYQVVLKGLRGGHSGVDIHTGRANAIKVLLRFLAELQQNQPHFDFTLANIRGGSIRNAIPRESVATLVFNGDITVLQSAVQKFADVIKAELALTEPNLIFTLEKVEKPQQVFSSQCTKNIIHCLNVLPNGVVRNSDVIENVVETSLSIGVLKTEDNFVRSTMLVRSLIESGKSYVASLLKSLASLAQGNINLSGDYPGWEPQSHSDILDLTKTIYAQVLGTDPEIKVIHAGLECGLLKKIYPTIDMVSIGPTIRNAHSPDEKVHIPAVETYWKVLTGILAHIPSR, MGSDKIHHHHHHMSDPIPAAPTDNGVPVSLRSSRGRGWHGFGASLLEIRAGTYRIPAAEHHRIGVHIGSPVRADCVCDGARVSRIQAHGDVDVIPAGLPGEWTDSADCRILHIALSDTFVRRTFDQLELKPSQAQIRRRLQVRDPRLQHIAWAMAAELEAEDASDPLYAESLCTALVARLADSQPAFREHRRTLAPKAAARVIDYVEANLERRMTLAELAALVSISVPHFKVLFRETLGMPVHQYVVRRRVERAKALLLEGRLGISQIALEAGFAHQSHMAHWMNRVLGATPTEIARSGARGGLRLAYDGEDR, MGSDKIHHHHHHMSDSTTPETIIVIGASSLMAQAFIAKTFTQQAYTDQTVIQQASSQQSKRHDTSPLQIITVSRQNKLILHDLTDNISHHHFSCDYQQASIEQCVTNIAAIAGKVTRIVMCNGILHSKNPQSADSILGPHSANDSTLMPEKRIEDIDALSLEQLFYANSIVPMLWLSALTSLLSLPRHKVAGEQKCVISILSARVGSISDNRLGGWYGYRASKAALNMLIKTTAVEYARRLKRVKLIAFHPGTTDTPLSKPFQANVPAGKLFTPEFVASQLYNIMADIEPNGEASYLDWQGKEISW, MGSDKIHHHHHHMSEKRQPWVQDLLWRLEALGFDLFIGAVRMMGVDRASDFGGWLGRTFGPMSGAHKVASRNLKLAFPDKDAAWHETILREQWDGLGRSFAEFPLMDKILPSTGRVEVVGKERLVEIAENRIPVVFVSGHLSNWEVMPAAIVDSGVICEMTYRAANNPYVDKRIKESRFRYGVRLFAPKGGDGARELLEGMKQGKSVALMNDQKFNSGVAAPFFGHLAHTAPGPTRLAIRFGTVLQPMSVQRLKGARFRAVVHDPIVPPKTGDRTADIEAGVRMINAFMEDRIRERPAEWFWVHRRWPNEVYAALAERERAAESSS, MGSDKIHHHHHHMSERLDENFSRAIDLMLACTGKIIISGMGKSGIIGQKIAATLSSTGTTAIFLHPAEAAHGDLGVVSEGDTVICLSKSGMTEELNFILPALRERKATIIAFTGNPRSYLAMNADVVLDTGVEQEACPYDLAPTSSTTAMLAMGDALAICLMKKKNFTDQEFALTHPKGSLGKQLTMRVGDVMATGDALPVVSEDAMLSDLILEMTSKRYGVSGVVDAEGKLTGIFTDGDLRRLVQTGESFLDKKAVEVMTPNPKTVAPDMKAKACLELLETHRITQLMVCDEKRCPVGIVHIHDLVTLGL, MGSDKIHHHHHHMSESAESVELIKLPVSQLTLGMFVSAIDKNDKGQLAIANAGQIKHKDAILKLAKSGIKFVWVDAERSAEHCGLKKKTTNDSQTDNRKAPVSRDKQQAQAKVMLTEAKDLIRKVLSETFEGKAIEVAPFEALADTMIESVMLDADALKCMSALRSKDAYLLEHSVNVAFLLVTFGKYLQLDRDMLRQMAVGGILHDIGKIKVDNKVLHKPGKLTPEEFEHMKLHQVYELEIMNETTGLSQISKDICLMHHEKLDGRGYPRGLKDDEIPRHGRMSCIVDIFDALTATRCYKEAMSPAAAFKILLSLTPFHLDQQLVYEFIRCIGIYPVGSLVELSDGRIGIVWASKDRDALHPIVKCFYSLKVKRYTDVAMVDLLKSELYIERGVSPSSLDIDPTPFY, MGSDKIHHHHHHMSETIQPGQTAVVLGAGGFLGSHVADALSNAGYKVRLFDRNPSPFRRSDQEMIIGDLMDISQVSNAVQGAAAVYNFAAIADIDEAHDNPLGTASINVLGNMHALEASRLAGVRRFIFASSVYVYSETGSFYRASKQAAERFTETYHERYGLEYTILRYGSLYGRRSDRRNGIYRMLHEAIQQRAITYRGSGESIREYIHVEDAARMSVQILAPEFANRHLILTGQEKLRIRDVMTMISEMLPWNVDLHYDQAKPGHHYQITPYAFQPRVGRKLVLNEHVDLGQGLLDCIQEIYQQISHGNEEGGTTPSSTDNQA, MGSDKIHHHHHHMSHISTADIEQVILPSSRDLGGFSVRRALPAPMRQMVGPFIFLDSFGPVRFGEGEGIDTRPHPHIGLSTLTYLLEGELTHRDSERYVQAIRPGEVNVMVAGAGIVHSERTPEHQRATGGKLAGLQSWIALPKKSEETAPLFQHLDAGSLPTVSGEGIGMKLLAGNLHGRQSPATVFSDLFAAEVHLEAGARYRIDGEHVERAIFVVAGALEIVGQDGNFGQDRLLVFKPGSEIVVKATGPARFLAFGGEPLPEKRFIRWNFVATDQERIRHAADLWRERGFPGVPDDDEFIPLPENFR, MGSDKIHHHHHHMSHITDIAYKNWIVELKSKIRSSQVKASLAINAALIEFYWDLGKMIAEKQTAWGTKFIEQVSHDLQVEFPEMKGLSTTNLKYCRSFYLFYQNAIGQQAVAQLPVTPNVQQGVGEISQQSVDQLQHIEKQVNVFGQQFVAQIPWGHNILIFTKSKSYTEAQFYLQQTISNAWGRETLALQIKSQLFERQGKAITNFKQTLPEPLSDLAQQTLKDPYNFDFVNMAGTMKEKDLEKQLITHISKFLLELGKGFAFVGQQYHLEIAENDYYLDLLFYHIKLKCYVVIELKNTKFVPEYTGKMNFYLSAVDTLLKQDDDKPTIGILLCRDKNNIEAEFALRDINKPIGISEFSFTEILPENLKSSLPTVEELENELQHLTNDTDEN, MGSDKIHHHHHHMSHRFFYRILGMRYLTSTNRKGYARMLFHRFSEKEWNFLKNDENNECFSCLMFYSRTGNAGRLEEEITDMKVDILSREYPPKVYGGAGVHAEELSKVLAERVDVTVRAFDGPRTAADIPAIPGTDPKGSLTVVGYDVPKELEDANGALKTFGVDLQIANDVDADIIHAHTWYACLAGYLAKMLHDTPLVITAHSLEPFRPWKREQLGGGYNLSSWAEKDAYEHADRVIAVSAGMREDILTAYPNLDPDKVVVVHNGITMSQFETPADDDPGWKVFERYNIDRSKPTLLFVGRITRQKGLPYLLQALHFVDPNIQVVLCAGAPDTPEIMEEVKTAFAKLDEERGNIIWIEEMLPKPELNALEHGCDAFICPSIYEPLGIVNLEAMACGLPVVASATGGIPEVVVDGETGYLVPVDQLHDGTGTPTNPDKFVHDMADAINRIMADPEKAKRMGQAGYERARDHFSWESIADKTVKVYEDVLAERK, MGSDKIHHHHHHMSIEFSRWPNNYMMSYQVTKALGLASLGATDVTEIYEACKKIDPNDKETWHREWLITAETLERHGKEAEAVGNWYTARNCYIRACNYNRIAEYTVMDDDNEKIRIFRKVNELFEAAGKYFDVKPEKIQVDYEDVKLDGYFFSPSWIKGPKPTILALNGGDEWSIENYFWLGPAFISCGYNFMVYDQPGTGLSMYEKGKGRRADSEAFHSRAIDFLLTRPEVDPNKIIVHGESFAAYDSLRFASFDHRIAAVISDGGTHAFDWEAMLKWMPPSLAGHGMRILGAKSLDDFAENPRFAYNLEGVLHQIECPLLVMHGAEEILVQPNPLTQALKNYEQAGSKNKTFFPIEDRRIGGLEHCQVDNINVLHEVVLNWLCSIGLGPFAPRPSDC, MGSDKIHHHHHHMSIGIVIASHGEFAAGIKQSGSMIFGEQEKVQVVTFMPSEGPTDLHAKIEAAIATFDAEDEVLVLADLWSGSPFNQASAVMGENPERKIAIITGLNLPMLIQAYTERMMDASAGVDKVVANIMKEAKGGIKVLPEELQPAEETAVAAAPAAVQGAIPEGTVIGDGKIKINLARIDSRLLHGQVATAWTPDSRANRIIVVSDTVSKDELRKKLIEQAAPTGVKANVIPIKKMIEVAKDPRFGDTKALLLFETPQDALATIEGGVPIETLNVGSMAHSTGKTMLNKVLSMDKDDVATFEKLRDLGVKFDVRKVPADSKSDLFGLINKADVQ, MGSDKIHHHHHHMSILTDSNETSHLPDSCSSTLGKQNFHNSLFSVPEAFEFSLVVVNDLVFAKRGKYLTDAELVVMRGALNNLDYEEIAHNSNYTVNYLQRCVAPLLWDTLSETIGNGDRVGKKKLRQILEELNQKYHIQSPFEPYLTLSSSDNSSLIIRGQLPEISNFYGRIHELNLLKELIFKHRCITLVGVAGVGKSSLATKLIVELSKKPRRQFDALIWKSLSHIPSLPELTHELIALIQPSLIPELPLSSSTHNLISILIQQLQSCPCLLVLDGFEALFQRSNFTERLEYSIFLNRLIDEASPSCLLLTTRILPDELNILIKNNPSTIKVFKVNGLDIDAATQLLSDLGLQQEENYQSLINTYWGNPLELKNVVSRIERFFSGSTLKFLENKTTLISLQLQTMLNEMFGQVLSDLQRRIMICITEDLVLTSQPISFAKLLTRLRQLPNLPVSTSELITDLEKLERLSLIESGKDNTTKEITFTLQPVVKKYINTDPAGLVHPSEQFTPYSTTTQKNTHAH, MGSDKIHHHHHHMSIRTRSRKSTPKQPESALRRWLKERHITEVECLVPDITGNARGKIIPADKFSHDYGTRLPEGIFATTVTGDFPDDYYALTSPSDSDMHLRPDASTVRMVPWAADPTAQVIHDCYTKDGQPHELAPRNVLRRVLEAYAEVKLQPVVAPELEFFLVQKNTDPDFPLLPPAGRSGRPETARQSYSIDAVNEFDPILDLMYDYCDAMELDVDTLIHESGAAQLEVNFTHADALSRADQVFLFKRTMREAALRHGVYATFLAKPMETEPGSAMHIHQSLLHAGTGKNVFSGKREGGFSDTFAHYLGGLQKYIPMAMGLLAPNVNSYRRLMFGEVSPSNVLWGFDNRTCGLRVPIDAPQNMRVESRFAGSDANPYLAMAATLACGLLGIREKLEPTAPISSNGKEQGYDLPRSLGEALDELEGCEALKEMLGPRFVRAYISVKRKEYETFFRVISSWEREFLLLNV
